Results on one molecule are retold here after publication PMC2717645.

In the test the target is taxol-stabilized microtubules (bovine brain tubulin) (bovine) (UniProt Q6B856). The test is described as follows: co-sedimentation.

B1: recombinant LC1 (natural protein)
chain: MAKATTIKDAIRIFEERKSVVATEAEKVELHGMIPPIEKMDATLSTLKACKHLALSTNNIEKISSLSGMENLRILSLGRNLIKKIENLDAVADTLEELWISYNQIASLSGIEKLVNLRVLYMSNNKITNWGEIDKLAALDKLEDLLLAGNPLYNDYKENNATSEYRIEVVKRLPNLKKLDGMPVDVDEREQANVARGG
Consider B1, for which the stoichiometry N (LC1 per tubulin monomer) was 1.06.
